According to PMC9830914, “Differential effects of mutations of POPDC proteins on heteromeric interaction and membrane trafficking” (Acta Neuropathologica Communications, 2023):
Changes are numbered by the printed parent chain. Blank lines part the entries; values can stand above or below the molecule they belong to.

What was measured:
[1] = target: POPDC1-VC155 (human) (UniProt Q8NE79); experiment: split reporter (BiFC, NanoBiT); BiFC in HEK293 cells, split Venus VC155 on POPDC1 and VN155 on POPDC2; Venus signal normalised to co-transfected mRFP and to the wild-type pair (set to 1); conditions: scale: relative to the wild-type pair
[2] = target: the molecule itself; experiment: SDS-PAGE and Western blot of oligomer bands; COS-7 cells lysed in 4 M urea and 10% SDS without a reducing agent; anti-GFP antibody detects complexes that hold POPDC1-CFP
[3] = target: the molecule itself; experiment: FRET or BRET; type-1 quantitative NanoBRET in HEK293 cells; C-terminal NanoLuc and HaloTag (HaloTag-618 dye); expression ratios varied at constant total expression; curves compared to ideal curves for monomers, dimers and other stoichiometries
[4] = target: T1, POPDC1 p.S201F-VC155 (human, UniProt Q8NE79 1-360, p.S201F); experiment: split reporter (BiFC, NanoBiT); BiFC in HEK293 cells, split Venus VC155 on POPDC1 and VN155 on POPDC2; Venus signal normalised to co-transfected mRFP and to the wild-type pair (set to 1); conditions: partners not purified
T1 construct: POPDC1 (BVES), human, full-length cDNA with the patient variant p.S201F; source: HEK293, transfected, in cells; not shown: split Venus VC155, C-terminal, kept
T1 sequence (looked up): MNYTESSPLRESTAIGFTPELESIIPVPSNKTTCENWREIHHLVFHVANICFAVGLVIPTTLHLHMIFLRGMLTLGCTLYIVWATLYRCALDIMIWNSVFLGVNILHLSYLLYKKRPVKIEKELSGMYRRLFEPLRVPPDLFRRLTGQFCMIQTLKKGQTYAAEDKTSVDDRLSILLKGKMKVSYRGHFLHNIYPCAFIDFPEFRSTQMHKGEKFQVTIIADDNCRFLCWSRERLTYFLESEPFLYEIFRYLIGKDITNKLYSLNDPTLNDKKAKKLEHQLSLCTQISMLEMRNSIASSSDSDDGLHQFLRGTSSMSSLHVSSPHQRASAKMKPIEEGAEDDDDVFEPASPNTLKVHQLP

[5] = target: POPDC1 p.Q153X-VC155 (human) (UniProt Q8NE79); experiment: as above; conditions: scale: relative to the wild-type pair

- BiFC signal relative to the wild-type pair [1]: 0.59
Molecule: POPDC2 p.W188X-VN155 (from UniProt Q9HBU9 1-187) (domain or fragment)

B1: POPDC1-CFP (natural protein, human, UniProt Q8NE79 1-360, looked up)
chain: T1 sequence (looked up) with F201S
notes: POPDC1 (BVES), human, full length cDNA in pECFP-N1; printed molecular weight of POPDC1 41.5 kDa; also called POPDC1-ECFP; source: COS-7, transfected, in lysate (4 M urea, 10% SDS, no reducing agent); not shown: CFP, C-terminal, kept
- stoichiometry N [2]: 2

B2: POPDC1 with C-terminal NanoLuc or HaloTag (NanoBRET constructs) (natural protein, human, UniProt Q8NE79 1-360, looked up)
chain: T1 sequence (looked up) with F201S
modifications: HaloTag-618 dye on the HaloTag copy
notes: POPDC1 (BVES), human cDNA cloned into pFC14K (HaloTag) or pFC32K (NanoLuc); Two differently tagged copies of one protein, written as one molecule: each copy carries only one of the two tags; With POPDC2-NL the HaloTag copy was used; also called POPDC1-NL; POPDC1-HT; source: HEK293, transiently transfected, in live cells; not shown: NanoLuc (on the copy POPDC1-NL), C-terminal, kept; HaloTag (on …)
- stoichiometry N [3]: 2

- BiFC signal relative to the wild-type pair [4]: 0.43 relative to the wild-type pair (set to 1)
- BiFC signal relative to the wild-type pair [5]: 0.248
B3: POPDC2-VN155 (natural protein, human, UniProt Q9HBU9 1-364, looked up)
chain: MSANSSRVGQLLLQGSACIRWKQDVEGAVYHLANCLLLLGFMGGSGVYGCFYLFGFLSAGYLCCVLWGWFSACGLDIVLWSFLLAVVCLLQLAHLVYRLREDTLPEEFDLLYKTLCLPLQVPLQTYKEIVHCCEEQVLTLATEQTYAVEGETPINRLSLLLSGRVRVSQDGQFLHYIFPYQFMDSPEWESLQPSEEGVFQVTLTAETSCSYISWPRKSLHLLLTKERYISCLFSALLGYDISEKLYTLNDKLFAKFGLRFDIRLPSLYHVLGPTAADAGPESEKGDEEVCEPAVSPPQATPTSLQQTPPCSTPPATTNFPAPPTRARLSRPDSGILASRIPLQSYSQVISRGQAPLAPTHTPEL
notes: POPDC2, human, full-length wild-type cDNA; also called wild-type POPDC2 with split Venus VN155; source: HEK293, transfected, in cells; not shown: split Venus VN155, C-terminal, kept
